According to the supplement of paper PMC7877785:
± gives the uncertainty stated by the source.

Experiment: self-splicing fitness, log relative to wild type (ln ratio); higher = more splicing; Tetrahymena group I intron in knt gene, E. coli kanamycin selection, DiMSum; sequences stand for … in CUCUCU…GGAGGGAAAAGUUAUCAGGCAUGCACCUGGUAGCUAGUCUUUAAACCAAUAGAUUGCAUCGGUUUAAAAGGCAAGACCGUCAAAUUGCGGGAAAGGGGUCAACAGCCGUUCAGUACCAAGUCUCAGGGGAAACUUUGAGAUGGCCUUGCAAAGGGUAUGGUAAUAAGCUGACGGACAUGGUCCUAACCACGCAGCCAAGUCCUAAGUCAACAGAUCUUCUGUUGAUAUGGAUGCAGUUCACAGACUAAAUGUCGGUCGGGGAAGAUGUAUUCUUCUCAUAAGAUAUAGUCGGACCUCUCCUUAAUGGGAGCUAGCGGAUGAAGUGAUGCAACACUGGAGCCGCUGGGAACUAAUUUGUAUGCGAAAGUAUAUUGAUUAGUUUUGGAGUACUCGUGGUCG
How it was run: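 Six replicate transformations of E. coli BL21(DE3) with a pET-22b(+) library were grown overnight at 37°C or 30°C. The library randomised all eight P1ex-region intron nucleotides, the intron lying in the knt kanamycin-resistance gene, and plates were LB agar with or without 25 μg/mL kanamycin plus 100 μg/mL carbenicillin, 50 μM IPTG and 0.2% rhamnose. Pooled colonies were amplicon-sequenced on an Illumina HiSeq 2500, and fitness is the DiMSum error-weighted combination of wild-type-normalised replicate fold changes, kanamycin versus none.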

Row | Sequence | self-splicing fitness (ln) (30 °C) | self-splicing fitness (ln) (37 °C)
1 | AGUCAGCAAUAUUACGGAAA | -2.78 ± 0.19 | -2 ± 0.15
2 | AGUCAGCAAUAUUACGGCCA | -0.485 ± 0.14 | -0.0722 ± 0.2
3 | AGUCAGCAAUAUUACGGGAG | -3.52 ± 0.15 | -1.41 ± 0.11
4 | AGUCAGCAAUAUUACGGGGG | -3.61 ± 0.21 | -2.6 ± 0.22
5 | AGUCAGCAAUAUUACGGUGG | -3.01 ± 0.26 | -1.79 ± 0.24
6 | AGUCAGCAAUAUUACGUACG | -0.473 ± 0.08 | -0.0481 ± 0.1
7 | AGUCAGCAAUAUUACGUCGA | -0.487 ± 0.1 | -0.568 ± 0.13
8 | AGUCAGCAAUAUUACGUUUG | -4.04 ± 0.21 | -2.53 ± 0.19
9 | AGUGAGCAAUAUUACGAACG | -0.686 ± 0.094 | -0.206 ± 0.15
10 | AGUGAGCAAUAUUACGACGU | -0.966 ± 0.059 | -0.385 ± 0.066
11 | AGUGAGCAAUAUUACGAGAA | -1.8 ± 0.48 | 
12 | AGUGAGCAAUAUUACGCAAU | -2.23 ± 0.4 | -0.698 ± 0.43
13 | AGUGAGCAAUAUUACGCAGA |  | -1.35 ± 0.28
14 | AGUGAGCAAUAUUACGCCGA | -1.82 ± 0.31 | -2.36 ± 0.4
15 | AGUGAGCAAUAUUACGCGGC | -3.16 ± 0.44 | 
16 | AGUGAGCAAUAUUACGGACG | -1.16 ± 0.15 | -1.45 ± 0.21
17 | AGUGAGCAAUAUUACGGCGU | -1.08 ± 0.071 | -0.465 ± 0.084
18 | AGUGAGCAAUAUUACGGGUA | -3.22 ± 0.23 | -1.61 ± 0.26
19 | AGUGAGCAAUAUUACGUAAU | -3.13 ± 0.15 | -1.7 ± 0.15
20 | AGUGAGCAAUAUUACGUAGC | -1.99 ± 0.14 | -3.39 ± 0.39
21 | AGUGAGCAAUAUUACGUCGU | -3.79 ± 0.2 | -2.07 ± 0.14
22 | AGUGAGCAAUAUUACGUUGC | -3.28 ± 0.2 | -2.18 ± 0.24
23 | AGUUAGCAAUAUUACGAAAC |  | -0.856 ± 0.39
24 | AGUUAGCAAUAUUACGACAA | -0.124 ± 0.18 | -0.562 ± 0.18

Row | Sequence | self-splicing fitness (ln) (30 °C) | self-splicing fitness (ln) (37 °C)
25 | AGUUAGCAAUAUUACGACAC | -0.65 ± 0.12 | 0.204 ± 0.2
26 | AGUUAGCAAUAUUACGAGAG | -3.75 ± 0.29 | -2.24 ± 0.22
27 | AGUUAGCAAUAUUACGAGGC | -3.83 ± 0.27 | -3.27 ± 0.23
28 | AGUUAGCAAUAUUACGCCAU | -3.41 ± 0.21 | -1.53 ± 0.14
29 | AGUUAGCAAUAUUACGCCCA | -1.44 ± 0.32 | -0.867 ± 0.33
30 | AGUUAGCAAUAUUACGCGCU | -3.13 ± 0.21 | -2.4 ± 0.31
31 | AGUUAGCAAUAUUACGGAGG | -2.91 ± 0.3 | -2.13 ± 0.41
32 | AGUUAGCAAUAUUACGGGAC | -3.33 ± 0.26 | -0.241 ± 0.12
33 | AGUUAGCAAUAUUACGGUGU | -3.11 ± 0.21 | -1.73 ± 0.21
34 | AGUUAGCAAUAUUACGGUUC | -3.52 ± 0.28 | -2.11 ± 0.27
35 | AGUUAGCAAUAUUACGUACG | -0.205 ± 0.18 | 0.0821 ± 0.19
36 | AGUUAGCAAUAUUACGUAGC | -3.86 ± 0.26 | -0.803 ± 0.14
37 | AGUUAGCAAUAUUACGUGCG | -0.586 ± 0.082 | -0.00484 ± 0.093
38 | AGUUAGCAAUAUUACGUGGG | -4 ± 0.29 | -3.07 ± 0.31
39 | AGUUAGCAAUAUUACGUGUA | -2.26 ± 0.23 | -0.97 ± 0.15
40 | AGUUAGCAAUAUUACGUUAU | -3.25 ± 0.17 | -2.08 ± 0.17
41 | AUAAAGCAAUAUUACGAACG | -0.309 ± 0.082 | -0.0989 ± 0.11
42 | AUAAAGCAAUAUUACGAAGA | -2.47 ± 0.15 | -1.17 ± 0.18
43 | AUAAAGCAAUAUUACGAAGG | -2.1 ± 0.081 | -1.41 ± 0.12
44 | AUAAAGCAAUAUUACGACGG | -1.66 ± 0.096 | -0.375 ± 0.12
45 | AUAAAGCAAUAUUACGAGCC | -0.929 ± 0.14 | -1.35 ± 0.19
46 | AUAAAGCAAUAUUACGAUCC | -1.21 ± 0.2 | -0.716 ± 0.22
47 | AUAAAGCAAUAUUACGAUGU | -0.252 ± 0.072 | 0.28 ± 0.099
48 | AUAAAGCAAUAUUACGCAAC | -1.38 ± 0.13 | -1.34 ± 0.21

Row | Sequence | self-splicing fitness (ln) (30 °C) | self-splicing fitness (ln) (37 °C)
49 | AUAAAGCAAUAUUACGCACA | 0.246 ± 0.1 | 0.202 ± 0.15
50 | AUAAAGCAAUAUUACGCACU | 0.366 ± 0.11 | 0.662 ± 0.11
51 | AUAAAGCAAUAUUACGCGAA | -1.19 ± 0.088 | -0.188 ± 0.1
52 | AUAAAGCAAUAUUACGCGGC | -2.79 ± 0.21 | -0.109 ± 0.19
53 | AUAAAGCAAUAUUACGCUGA | -1.27 ± 0.082 | -0.907 ± 0.15
54 | AUAAAGCAAUAUUACGGAAA | -1.11 ± 0.11 | -1.12 ± 0.18
55 | AUAAAGCAAUAUUACGGACA | -0.148 ± 0.094 | 0.131 ± 0.13
56 | AUAAAGCAAUAUUACGGACG | -0.505 ± 0.11 | -0.793 ± 0.13
57 | AUAAAGCAAUAUUACGGGAG | -1.52 ± 0.11 | -1.23 ± 0.14
58 | AUAAAGCAAUAUUACGGGCG | -0.028 ± 0.097 | -0.567 ± 0.1
59 | AUAAAGCAAUAUUACGGUGC | -1.95 ± 0.1 | -0.743 ± 0.13
60 | AUAAAGCAAUAUUACGUAAA | -2.39 ± 0.11 | -1.03 ± 0.12
61 | AUAAAGCAAUAUUACGUACG | -0.889 ± 0.095 | -0.0766 ± 0.13
62 | AUAAAGCAAUAUUACGUAGC | -3.74 ± 0.27 | -1.26 ± 0.2
63 | AUAAAGCAAUAUUACGUCUA | 0.308 ± 0.078 | 0.497 ± 0.099
64 | AUAAAGCAAUAUUACGUUAG | -1.33 ± 0.067 | -0.504 ± 0.088
65 | AUAAAGCAAUAUUACGUUCU | 0.0113 ± 0.08 | 0.404 ± 0.12
66 | AUAAAGCAAUAUUACGUUUC | -3.83 ± 0.23 | -2.64 ± 0.33
67 | AUACAGCAAUAUUACGAAGG | -3.3 ± 0.24 | -2.87 ± 0.28
68 | AUACAGCAAUAUUACGACCG | -1.22 ± 0.096 | -0.49 ± 0.1
69 | AUACAGCAAUAUUACGACUC | -0.976 ± 0.086 | 0.311 ± 0.11
70 | AUACAGCAAUAUUACGAGCA | -2.04 ± 0.24 | -1.91 ± 0.23
71 | AUACAGCAAUAUUACGAUGU | -0.929 ± 0.076 | -0.0117 ± 0.089
72 | AUACAGCAAUAUUACGCAUA | -1.54 ± 0.12 | -0.743 ± 0.13

Row | Sequence | self-splicing fitness (ln) (30 °C) | self-splicing fitness (ln) (37 °C)
73 | AUACAGCAAUAUUACGCCAC | -3.08 ± 0.24 | -3.12 ± 0.32
74 | AUACAGCAAUAUUACGCCUU | -0.541 ± 0.06 | -0.208 ± 0.073
75 | AUACAGCAAUAUUACGCUUU | -3.04 ± 0.18 | -1.64 ± 0.15
76 | AUACAGCAAUAUUACGGAAC | -3.46 ± 0.43 | -1.67 ± 0.35
77 | AUACAGCAAUAUUACGGACG | -1.61 ± 0.091 | -1.04 ± 0.098
78 | AUACAGCAAUAUUACGGAGC | -3.27 ± 0.28 | -2.78 ± 0.26
79 | AUACAGCAAUAUUACGGCCU | -0.505 ± 0.093 | 0.263 ± 0.1
80 | AUACAGCAAUAUUACGGCUG | -1.95 ± 0.13 | -2.6 ± 0.23
81 | AUACAGCAAUAUUACGGUAC | -4.13 ± 0.3 | -2.2 ± 0.18
82 | AUACAGCAAUAUUACGGUAG | -1.54 ± 0.075 | -0.891 ± 0.087
83 | AUACAGCAAUAUUACGGUAU | -3.46 ± 0.18 | -2.99 ± 0.2
84 | AUACAGCAAUAUUACGGUUG | -2.35 ± 0.097 | -0.364 ± 0.093
85 | AUACAGCAAUAUUACGUCAU | -1.53 ± 0.084 | -0.888 ± 0.088
86 | AUACAGCAAUAUUACGUCGG | -2.35 ± 0.13 | -2.13 ± 0.17
87 | AUACAGCAAUAUUACGUCUG | -2.93 ± 0.083 | -1.4 ± 0.08
88 | AUACAGCAAUAUUACGUGGA | -3.06 ± 0.12 | -2.47 ± 0.12
89 | AUACAGCAAUAUUACGUGGG | -3.45 ± 0.15 | -1.53 ± 0.12
90 | AUACAGCAAUAUUACGUUAG | -3.13 ± 0.15 | -2.12 ± 0.17
91 | AUACAGCAAUAUUACGUUAU | -3.44 ± 0.13 | -2.04 ± 0.1
92 | AUAGAGCAAUAUUACGAAAG | -3.24 ± 0.2 | -2.05 ± 0.22
93 | AUAGAGCAAUAUUACGAAGA | -1.28 ± 0.38 | 
94 | AUAGAGCAAUAUUACGAAGU | -0.306 ± 0.1 | -0.662 ± 0.14
95 | AUAGAGCAAUAUUACGAAUC | -3.82 ± 0.25 | -2.63 ± 0.3
96 | AUAGAGCAAUAUUACGAAUG | -3.68 ± 0.19 | -1.96 ± 0.17
